Assay results reported in FireProtDB (doi:10.1002/pro.2449).

B1: Guanyl-specific ribonuclease T1, P00651 (parent)
chain: MMYSKLLTLTTLLLPTALALPSLVERACDYTCGSNCYSSSDVSTAQAAGYQLHEDGETVGSNSYPHKYNNYEGFDFSVSSPYYEWPILSSGDVYSGGSPGADRVVFNENNQLAGVITHTGASGNNFVECT
B2: Guanyl-specific ribonuclease Sa, P05798 (parent)
chain: DVSGTVCLSALPPEATDTLNLIASDGPFPYSQDGVVFQNRESVLPTQSYGYYHEYTVITPGARTRGTRRIITGEATQEDYYTGDHYATFSLIDQTC

What was measured:
[1] = variants of: B1; conditions: Aspergillus oryzae (strain ATCC 42149 / RIB 40), pH 7, MOPS, transition: 2, reversible: yes, structure 1YGW, whole UniProt chain shown; for denaturant m value / denaturant midpoint (higher = more stable) / unfolding free energy: 25 °C, Urea; for Tm / change of melting temperature, mutant - wild type (higher = more stable) / ddG of mutation (higher = less stable) / unfolding enthalpy (calorimetric): Thermal, DSC
[2] = variants of: B2; conditions: Kitasatospora aureofaciens; pH 7; Thermal; DSC; MOPS; transition: 2; reversible: yes; structure 1RGG; whole UniProt chain shown

## T117A T119V
[1]
  denaturant m value: 1.21 kcal/mol/M
  denaturant midpoint (higher = more stable): 2.35 M
  unfolding free energy: 2.9 kcal/mol
  Tm: 41.4 °C
  change of melting temperature, mutant - wild type (higher = more stable): -11 °C
  ddG of mutation (higher = less stable): 3.4 kcal/mol
  unfolding enthalpy (calorimetric): 90 kcal/mol

## T119A
[1]
  denaturant m value: 0.91 kcal/mol/M
  denaturant midpoint (higher = more stable): 4.46 M
  unfolding free energy: 4.1 kcal/mol
  Tm: 50.2 °C
  change of melting temperature, mutant - wild type (higher = more stable): -2.3 °C
  ddG of mutation (higher = less stable): 0.7 kcal/mol
  unfolding enthalpy (calorimetric): 104 kcal/mol

## T119V
[1]
  denaturant m value: 1.2 kcal/mol/M
  denaturant midpoint (higher = more stable): 4.16 M
  unfolding free energy: 5 kcal/mol
  Tm: 49.3 °C
  change of melting temperature, mutant - wild type (higher = more stable): -3.2 °C
  ddG of mutation (higher = less stable): 1 kcal/mol
  unfolding enthalpy (calorimetric): 97 kcal/mol

## T117A
[1]
  denaturant m value: 1.25 kcal/mol/M
  denaturant midpoint (higher = more stable): 2.32 M
  unfolding free energy: 2.9 kcal/mol
  Tm: 41.9 °C
  change of melting temperature, mutant - wild type (higher = more stable): -10.6 °C
  ddG of mutation (higher = less stable): 3.2 kcal/mol
  unfolding enthalpy (calorimetric): 98 kcal/mol

## T117V T119A
[1]
  denaturant m value: 1.33 kcal/mol/M
  denaturant midpoint (higher = more stable): 1.9 M
  unfolding free energy: 2.5 kcal/mol
  Tm: 38.5 °C
  change of melting temperature, mutant - wild type (higher = more stable): -14 °C
  ddG of mutation (higher = less stable): 4.3 kcal/mol
  unfolding enthalpy (calorimetric): 92 kcal/mol

## T117V
[1]
  denaturant m value: 1.24 kcal/mol/M
  denaturant midpoint (higher = more stable): 2.07 M
  unfolding free energy: 2.6 kcal/mol
  Tm: 40.7 °C
  change of melting temperature, mutant - wild type (higher = more stable): -11.8 °C
  ddG of mutation (higher = less stable): 3.6 kcal/mol
  unfolding enthalpy (calorimetric): 95 kcal/mol

## T117A T119A
[1]
  denaturant m value: 1.21 kcal/mol/M
  denaturant midpoint (higher = more stable): 1.9 M
  unfolding free energy: 2.3 kcal/mol
  Tm: 40.5 °C
  change of melting temperature, mutant - wild type (higher = more stable): -12 °C
  ddG of mutation (higher = less stable): 3.7 kcal/mol
  unfolding enthalpy (calorimetric): 96 kcal/mol

## T117V T119V
[1]
  denaturant m value: 1.32 kcal/mol/M
  denaturant midpoint (higher = more stable): 2.19 M
  unfolding free energy: 2.9 kcal/mol

## S3A
[2]
  change of melting temperature, mutant - wild type (higher = more stable): -1.1 °C
  ddG of mutation (higher = less stable): 0.3 kcal/mol
  unfolding enthalpy (calorimetric): 86 kcal/mol

## S31A
[2]
  change of melting temperature, mutant - wild type (higher = more stable): 1.5 °C
  ddG of mutation (higher = less stable): -0.4 kcal/mol
  unfolding enthalpy (calorimetric): 91 kcal/mol

## S42A
[2]
  change of melting temperature, mutant - wild type (higher = more stable): 0.4 °C
  ddG of mutation (higher = less stable): -0.1 kcal/mol
  unfolding enthalpy (calorimetric): 92 kcal/mol

## T95A
[2]
  change of melting temperature, mutant - wild type (higher = more stable): -2.1 °C
  ddG of mutation (higher = less stable): 0.6 kcal/mol
  unfolding enthalpy (calorimetric): 97 kcal/mol

## S48A
[2]
  change of melting temperature, mutant - wild type (higher = more stable): 1.7 °C
  ddG of mutation (higher = less stable): -0.5 kcal/mol
  unfolding enthalpy (calorimetric): 92 kcal/mol

## S90A
[2]
  change of melting temperature, mutant - wild type (higher = more stable): 0.7 °C
  ddG of mutation (higher = less stable): -0.2 kcal/mol
  unfolding enthalpy (calorimetric): 86 kcal/mol

## S9A
[2]
  change of melting temperature, mutant - wild type (higher = more stable): -4.5 °C
  ddG of mutation (higher = less stable): 1.3 kcal/mol
  unfolding enthalpy (calorimetric): 91 kcal/mol

## N20A
[2]
  change of melting temperature, mutant - wild type (higher = more stable): -0.1 °C
  ddG of mutation (higher = less stable): 0 kcal/mol
  unfolding enthalpy (calorimetric): 89 kcal/mol

## N39A
[2]
  change of melting temperature, mutant - wild type (higher = more stable): -7.3 °C
  ddG of mutation (higher = less stable): 2 kcal/mol
  unfolding enthalpy (calorimetric): 66 kcal/mol

## S24A
[2]
  change of melting temperature, mutant - wild type (higher = more stable): -0.7 °C
  ddG of mutation (higher = less stable): 0.2 kcal/mol
  unfolding enthalpy (calorimetric): 77 kcal/mol
